From paper PMC9811624 (The EMBO Journal, 2022)
Like-named read-outs stand apart in the source and are kept apart here.

T1: GST-OsCIPK7 (Oryza sativa (rice), UniProt Q75GK4 1-447)
T1 sequence: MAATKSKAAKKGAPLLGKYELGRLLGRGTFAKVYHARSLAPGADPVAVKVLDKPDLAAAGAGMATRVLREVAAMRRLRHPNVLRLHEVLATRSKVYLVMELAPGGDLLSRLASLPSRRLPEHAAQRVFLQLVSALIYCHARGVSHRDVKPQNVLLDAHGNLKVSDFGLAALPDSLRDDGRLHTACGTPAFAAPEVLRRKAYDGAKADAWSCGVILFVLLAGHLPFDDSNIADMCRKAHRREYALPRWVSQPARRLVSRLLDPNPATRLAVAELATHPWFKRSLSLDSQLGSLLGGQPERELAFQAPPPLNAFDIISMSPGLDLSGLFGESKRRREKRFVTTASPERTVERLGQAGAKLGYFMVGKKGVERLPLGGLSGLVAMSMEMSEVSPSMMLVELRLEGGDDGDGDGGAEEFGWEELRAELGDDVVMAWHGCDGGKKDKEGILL

B1: MBP-OsCBL8 (natural protein)
chain: MGCVSSKQFKRAAQHEDPAILAKETTFSVSEVEALFELFKKISHSIFRDGLIHKEEFQLALFRNSNKKNLFANRIFDLFDLKRNGVIDFGEFVRSLSIFHPETPLGDKIAFAFRLYDLRGTGCIEREELHEMVLALLNESDLFLSEEAVEQIVDQTFKQADLNDDGKIDPDEWKTFASKNPALLKNMTLPYLKDITMVFPSFILNSEVCEEEL
B2: MBP-OsCBL7 (natural protein)
chain: MGCISSKQFKRAAEHEDPAILAKETTFSVSEVEALYELFKKISHSIFKDGLIHKEEFQLALFRNSNKKNLFADRIFDLFDLKRNGVIDFGEFVRSLNIFHPETPLAEKIAFAFRLYDLRGTGYIEREELYEMVLAILNESDLLLSDDAVEQIVDQTFKQADLNSDGKIDPDEWKAFASKNPALLKNMTLPYLKDITMAFPSFVLNSGVDDEEL

What was measured:
[1] = biological target: MBP-OsCRT3 (Oryza sativa (rice)); test: SPR
[2] = biological target: MBP-OsCBL8 (Oryza sativa (rice)) (UniProt Q3HRN9); test: SPR
[3] = biological target: MBP-OsCRT3 (Oryza sativa (rice)); test: SPR; remark: listed apart in the source
[4] = biological target: MBP-OsCBL8 (Oryza sativa (rice)) (UniProt Q3HRN9); test: SPR; remark: listed apart in the source
GST-OsCIPK7 = biological target: T1, GST-OsCIPK7; test: pull-down

Row | Molecule | Kd [1] | koff [1] | kon [1] | Kd [2] | Kd [3] | koff [3] | kon [3] | Kd [4] | binding result (GST-OsCIPK7)
1 | GST-OsCIPK7-C (domain or fragment) | 6490 nM | 0.00157 s⁻¹ | 256 M⁻¹ s⁻¹ | 340 nM | 920 nM | 0.00077 s⁻¹ | 684 M⁻¹ s⁻¹ | 390 nM | 
2 | B1 |  |  |  |  |  |  |  |  | binds
3 | B2 |  |  |  |  |  |  |  |  | binds
